Laboratory results reported in patent US10119137B2, “Methods used to treat cancer” (THE TRANSLATIONAL GENOMICS RESEARCH INSTITUTE, priority 2015, dated 2018).

How the values were obtained:
Type in all cases: cell-based, Human
U87 glioma cells = test: Histone H2A.X phosphorylation immunoblot after TMZ; details: U87, TMZ 500 μM, control or SGEF depleted conditions
Description: (§1) For immunoblotting, cells were lysed in 2×SDS sample buffer (0.25 M Tris-HCl, pH 6.8, 10% SDS, 25% glycerol) containing 10 μg/mL aprotinin, 10 μg/mL leupeptin, 20 mM NaF, 2 mM sodium orthovanadate, and 1 mM phenylmethylsulfonyl fluoride. Protein concentrations were determined using the BCA assay (Pierce) with bovine serum albumin as a standard. Thirty micrograms of total protein were loaded per lane and separated by SDS PAGE. After 4° C. transfer, the nitrocellulose (Invitrogen) was blocked with either 5% nonfat milk or 5% BSA in Tris-buffered saline, pH 8.0, containing 0.1% Tween 20 (TBST) prior to addition of primary antibodies and followed with peroxidase-conjugated anti-mouse IgG or anti-rabbit IgG. Protein was detected using SuperSignal West Dura Chemiluminescent Substrate (Thermo Scientific) with a UVP BioSpectrum 500 Imaging System (Upland, Calif.). Densitometry was calculated via Image J software.

[1] = tested on: T98G and U118 glioma cells; test: TWEAK stimulation: SGEF mRNA (qPCR) and protein (western blot) expression; details: TWEAK 100 ng/mL, increase apparent within two hours
Description: Human astrocytoma cell lines U87, U118, and T98G (American Type Culture Collection), as well as primary glioblastoma xenograft cells (GBM & GBM TMZ-R lines) were maintained in DMEM (Gibco, USA) supplemented with 10% heat-inactivated fetal bovine serum (FBS; Gibco, USA) at 37° C. with 5% CO2. For all assays with TWEAK treatment, cells were cultured in reduced serum (0.5% fetal bovine serum) for 16 h before stimulation with recombinant TWEAK at 100 ng/mL in DMEM+0.1% bovine serum albumin for the indicated times.
as §1, with “After 4° C. transfer, the nitrocellulose (Invitrogen) was blocked with either 5% nonfat milk or 5% BSA in Tris-buffered saline, pH 8.0, containing 0.1% Tween 20 (TBST) prior to addition of primary antibodies and followed with peroxidase-conjugated anti-mouse IgG or anti-rabbit IgG.” left out, “software. […]” for “software.”

[2] = tested on: SGEF promoter NF-κB p65 consensus sequence; test: Biotinylated electrophoretic mobility shift assay, NF-κB binding site of the SGEF promoter; details: T98G nuclear proteins 2 hours after TWEAK 100 ng/mL
Description: T98G glioma cells were plated at a density of 3×10^6 in 100 mm^2 tissue culture dishes in normal growth medium. After 12 h, cells were cultured under reduced serum (0.5% FBS) for an additional 16 h before TWEAK (100 ng/mL) addition for 2 h. Isolation of cell nuclear protein was carried out using the NE-PER kit (Pierce) according to the protocol of the manufacturer. Protein-DNA complexes were detected using biotin end-labeled double-stranded DNA 23-mer probes containing the NF-κB binding sites within the SGEF promoter (NF-κB-SGEF wt target sequence: 5′-GTCTAGGAGGCAAATCCCAGAAA-3′ (SEQ ID NO:5); NF-κB-SGEF mt target sequence: 5′-GTCTAGGAGCCAGATCGCAGAAA-3′(SEQ ID NO:6)). The binding reactions were done using the LightShift kit (Pierce) according to the protocol of the manufacturer. Where indicated, 200-fold molar excess of unlabeled NF-κB-SGEF wt oligonucleotides or anti-p65 antibody was included. The reaction products were resolved by gel electrophoresis and detected by chemiluminescence according to the protocol of the manufacturer (Pierce).

## Cn1nnc2c(C(N)=O)ncn2c1=O [TMZ, temozolomide]
U87 glioma cells
  time to phosphorylation of H2A.X after TMZ treatment: ≤ 30 min

B1: TWEAK: Human recombinant TWEAK, tumor necrosis factor-like weak inducer of apoptosis, cytokine ligand of Fn14 (protein)
chain: SAPKGRKTRARRAIAAHYEVHPRPGQDGAQAGVDGTVSGWEEARINSSSPLRYNRQIGEFIVTRAGLYYLYCQVHFDEGKAVYLKLDLLVDGVLALRCLEEFSATAASSLGPQLRLCQVSGLLALRPGSSLRIRTLPWAHLKAAPFLTYFGLFQVH
[1]
  SGEF mRNA levels: increased
  SGEF protein levels: increased
[2]
  NF-κB binding to the SGEF promoter region: NF-κB binds to the SGEF promoter region
